Article PMC11061317 (Cell Research, 2024)
Ends that are not written are not given here.

Legend:
[1] = target: T1, bacterially purified GST-tagged Rheb (UniProt Q15382 1-184); experiment: pull-down; recombinant Rheb (1 ug) and biotinylated C-tail peptide at a 1:5 molar ratio in 300 uL NETN buffer (40 mM Tris-HCl, 100 mM NaCl, 0.5% NP-40, 1 mM EDTA, 10% glycerol) with 15 uL streptavidin beads, 2 h at 4 °C; SDS-PAGE and immunoblot; details: both partners purified
T1 construct: Rheb, small G protein; The real-time BODIPY assays written under functional used His-tagged Rheb from E. coli instead of the GST-tagged protein; also called GST-Rheb; recombinant GST-tagged WT Rheb; source: E. coli BL21 (DE3), purified (Glutathione Sepharose 4B); not shown: GST, N-terminal, kept

[2] = target: T2, bacterially purified Rheb-G63V (UniProt Q15382 1-184, G63V); experiment: as above; details: both partners purified
T2 construct: source: E. coli BL21 (DE3), purified
T2 sequence (Q15382 whole entry G63V): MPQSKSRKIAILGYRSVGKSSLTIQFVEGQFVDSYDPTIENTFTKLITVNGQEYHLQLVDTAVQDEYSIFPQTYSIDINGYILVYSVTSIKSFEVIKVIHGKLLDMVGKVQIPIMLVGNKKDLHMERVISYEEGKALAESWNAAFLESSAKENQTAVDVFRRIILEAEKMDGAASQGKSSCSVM

T1 sequence (Q15382 whole entry): as the sequence (Q15382 whole entry G63V) above, with V63G counted along it

Binder | binding result [1] | binding result [2]
HKGPTISLTQIV (also: biotinylated, position not given here, the last 12 residues of ATP6AP1; also called C12; synthetic C12 peptide; source: synthetic peptide (Genscript ProBio)) [biotinylated synthetic peptide of the ATP6AP1 C-tail (12)] | binds | 
TYGLHMILSLKTMDRFDDHKGPTISLTQIV (also: biotinylated, position not given here, ATP6AP1 C-terminal 30 amino acids (C-tail), aa 441-470; also called synthetic C-tail peptide; WT C-tail peptide; source: synthetic peptide (Genscript ProBio)) [biotinylated synthetic peptide of the ATP6AP1 C-tail (30)] | binds | binds
